Measurements taken from the domain aggregation screens of Martell et al. (2025).

Assay: soluble fraction after stress (log2 fold change); higher = more stays soluble; pooled small domains, quantitative proteomics
Details: stress: 50 degC
Summary of the method: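 The measure of aggregation propensity here is the base-two logarithm of the fold change in the soluble amount of each protein after stress. A higher value means more of that protein stays in solution. Stress was applied at 50°C to pooled libraries of small protein domains, read out by high-throughput quantitative proteomics.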

Sequence | soluble fraction (log2)
HMTQGIDQISFSQFLDKVQSGEVTDVRISGSDITGTLKTGGKFETVAGNYEKIWDLLRENKVVFVVDSP | 0.0436
HMTAKQDLDSIYRHLVATRKSIAENPKMVSSIDDPQALIKMLDYAIQYFYTDKRDEALAVLEKNEEQLNFR | -0.117
HMSFDGFSDRLKSVLNSGKYTQKEAAEKINISEYSFTKYLNGRIPQTEILYKIARLYNKSMEWLLTGKDPI | -2.01
HMNDMPELLSIKEASQWATEYLNKNVTTSNIAYLIQYGRIRKIGNNGSTQVLKDDLVKYYKDQK | -0.139
HMKININEASRYELMTIGGLDAGRADMLMQYRQKREISSADELKGINGFASYDTAKLQKSFEISP | -0.0475
HMDVQGFVMDLDKPLDKEPIVEGFELKLEDSLTLVAAVNKDKSINSLFDELSKLGIKVKSMRNPP | -0.0252
HMSLSISSLVFFRKNAGLTQADIATAMSITQSAVARLEKRLLSDSDVTLKTLERYAEAVGIRMHVDFEP | -0.0207
HMPVSTLLGDNLRRLRTAKGYTQEAVADAARISVAAYRNYETGRAIPKVNTLLAIARALGVSLNDLVTE | -0.104
HMLSDEDMMELAIIENLQRENLNPIEEARAYESLIDKGFTHTEIADKMGKSRPYISNSIRLLSL | 0.162
HMSFSQNIGKRIREERLRLNLTQEKLAEDVNLSMAYIGQVERGDRSLTLDNLIIVAKRLGVTIDYLLS | -1.25
HMNKPLFVYPNPVHQGKINLSKATNFMVVDLLGQTVNKTNYGKDFSIDNLPNGVYFIKTTEGEIIKFMK | -0.696
HMHPVTGRIGTVTAANGLNLRADSSEYANVVATLGYGVDVTVTGERINGFYPVRVGTLSGYVSADYVSFNS | -0.238
HMTTHERHEIIELLRQVGDPMRPKEISEALGKPSGAIRFLLSKLTEEGAIKKTGYGQYTYIP | -0.359
HMNETTVPDVINQNISTGKIIIEDADLEYRIQYIPSEKSSSIGTIINSIPIYGKRVKSGTIVDLKVLG | -0.0142
HMQLSMLPYGFARRHGVLLVEQDEQPTLIHRAGITATVIAEVQRVAGQIDAWRLVDDARFDQQLAEVYRD | -1.06
HMKMVEIDYGKFLTMLDTGKVKSVEIENNRIAINPSSSKDKNIYITGRMDDPELVDRLKNAKVEFTKVIP | 0.261
HMFSVVDKITLQEELKKLSKKEQLLIQLRYYDELNQEEIAKIFHVSQVQISRMEKKIIEKLKKQF | -3.58
HMGSDLVAWAQTRIGRHPEEAADVIAALIDRHGEARVRAASRSLLARKFAHASDLRTAIDAAIG | -0.0161
HMYLEARVKSTTPILSKPNELGKSLGKLYTNDFVALVSLHKNGLDSYYRTANGGYINAADVVIDRDV | -0.663
HMAIELTPRQLDIIELVRKHAPITGEQIAELLGVTRPSIRSDLGLLVMLGYIDAKPKVGYFAGPRM | -0.597
HMRRVEDVRTALEHFAAARNTTPMAMTLDQRREAMRELAASGLLNLRRALSEVAQTLGVARSTVYTYLP | -0.84
HMSSLTDNFVKALSYYLALSGKSKKEVADGIGIPPTTFSSWSNGKHLPDMDRLQNLATYLGAPVSEFFDFT | -0.0831
HMHGESISVPDLRGQKMERMPAFLADKHLQFKVIDSLFDLEKNPGTVLEQDPAPNSKVKEGRTIYLTVNAQ | -0.022
HMTALTTEDLERRFYAKTYEGESAQKRLARLEISVFGELRQGRPESDRLHDLNNAVLEKERAALNAGAVG | 0.123
HMPYLVNGFILEVQSDDNNPVGTLKRRYAVAKNKQGVILLEGEKSFSSNDQILINELKFYIQSNDLKA | -2.43

Sequence | soluble fraction (log2)
HMEPDEQAVKALIAEIDKLSKEKLTLKHEKKLKELREIYDDFTEEEKKLVTNYDILVKMEKRMEVLKKQEG | 0.111
HMYLPLREVVFNALRTAIIHGEFKPGERLMEMHLAKSLGVSRTPVREAMRMLELEGLVVMIPKKGAEVAR | -3.13
HMTVKEVGYDTFLTMLDKKEIKQVQVEDNQIIFSDNADPVNYYKTGVFNDPDLVNRLQDAGVEFG | 0.312
HMGVPTEQEIGKRILAWRKLRGMTLQQLADKAGVGLTTIHNLETGLWYAKMPTYLYIAEALGVSLDALIYG | -1.42
HMVTLQEVKQYLRIDFEEEDPLLLSLLATAKQQVMNVGRMDEAQLSEHEDTARTAILYAVSYLYENRN | -1.85
HMEEFLSFIADILEVDKNTLTLETSQDDVETWDSLMQLRLLGEIEAKYGVMIPMERISTIKKLNDFYQYIK | -0.513
HMVPSSHNIAQKVKQIKINDLWLDVRERYIYLKNLYLSHPLEKDHPSFIVYVEAVNQIYNQYF | 0.02
HMEGFSAGQFVRASVDNTAFYLKRPKGDAVADKLLRRGASMKVISASGDYLKVELDSGEVGFVPPVMVE | 0.05
HMIKIDESTLSEDELKIFEILKIEDKNIENIAIESKILPGKLLATLMNMEMKKIVVQYPGKVFGLNRKLK | -0.492
HMNPNEVQIPDLVNKTEEEAEQILKDLKLKLVVKSEEYDENIEKGKIISQDPTYKENYKIKEHSEISVIIS | 0.214
HMDVLIQEIGKRLRIQRLAMGLTQEELAKRAGISLSTLKLMEQQGKGSLQRLAKVAVVLDLDGDLRGLF | -2.42
HMEMDPKELGRQVLAKRKEKGWSQEQLGKMAEISRNYVSQIERGEADSISIKIINRLAIALGVSPSDLGE | 0.0486
HMEELIEMNGVVMEILPDSRYRVTLDNGHKLIAYTGGKMKKNHIRILAGDKVTLELSPYDINNGRITFRHI | -1.28
HMFYNDLINFDVFRDSRKIGKIENINSRLPQPVFEIMYDSRIVLIPIHEDFIRKIDKVNNIIYLDIPDGLL | -1.72
HMEAVLTISPGMYSESVSAELVRLGIITNQKEFNSYLVNNGYAERIQTGDFKIKADMSYDEIARIITK | 0.231
HMPAPKPSGALSLKDEPLYAASDSKRRSGTVSGTYYRWDGENVNGRMRITNKQENIGKAGQVTGWITAH | 0.087
HMANPMFAEIKKVQKQLNEMGYQAGPADGLWGNKTENAVKLLLSDNNLKWDGTFDQNEIKIIEEIFLSND | -0.256
HMGKEDISQINKLYQNQILDYETYIDTLNSFNIDTKSKDFKNLLDLFIKKSISFETFNKGIINIHNKS | 0.11
HMADLIVFTTDANKEKKVDDETYFYLDVVSDGKLVENYELTEKQYNYIKDLGVGEYVYNEKGKLDSYTAFT | -0.00687
HMAPQVKIPNLVDVSQRQAEAILNSYGLKVGHLIYKPDLAKDAVLGFMFNGRSLKAGDELAKGSSIDLILG | -0.097
HMDIVENSMPNVVGLELNRAKELMTQLGFTNVRYEPTESSRPENEVVYQSVDKDETLDVSSEIIIQYSSGV | -0.0131
HMEETLRALAKKISEKVLKSGRSTTLEPMNPYERRIIHSAVSEIEGVSSKSVGEEPYRKVVISSDNP | 0.0364
HMGDADDLTRIKGIGPKLSKTLNELGIYHFRQIAGWQSDEADWVDDYLSFKGRVMREQWIEQAQKFAS | -0.392
HMPSLGGLLALLKRNRKPDAMEALDRLISKEDRPETAEALENIREKVRNMQMREAEGLLLALMEP | -0.0372
HMHSLGDQVFETIKELIVNNTYQPGELLQIDKLAAEFGVSTTPVREALLRLEGLGLVDIERNKAAVVT | -0.112

Sequence | soluble fraction (log2)
HMTSLSYINDLVTGATAQGLYRIVVPNQFMDDNMANVLRRTYGYQVQSRTSLMGTFDDYIISWAPPM | -2.45
HMPEDQISYTDLIKQINDGNVEKIKMTVGSTTIKVNLKEQEEPKTAIVPSTQAFIELVQEKVQDGNEITLI | 0.119
HMHVSLSGKIHSELRKLILNGELKAGERLPSEPDLAHELGVSRNSLREAIGLLQREGLLLKKHGIGTFVTD | -0.829
HMQNLISSDEAKNIALQHANLTDNQVTFIKVSKDYDDGIHIYEVEFHYNNREYNYDINAINGTILSYEQ | -0.574
HMQMTTPQMVPLFTDLSVDDSASIIKDLERQAVPYQIKSDGAIIMVPKDKVTRLRMKLAESGLPK | 0.25
HMATTPEETILEYINKNNRISKQEIADLMGITRDGVSYHIKKLRKNGLLEWIGSPSNGHWEIIE | 0.274
HMFTGELESRVFELNYVDGLVASAALAGVLTDKGSATPIASRAGGENDMLLVVDRIASYSQIEKIITQLD | -0.0977
HMNPFLELTEREMDVLRLIAIGRNNQEIASELVISEKTVKTHITNIFSKLHFKDRTQAAAYAWQSGIVR | -0.74
HMHALSVKFSDEAAKTLPYDILSALRDVLALDPRPGYSRDENKIYRFEYADYNISFSVKDKTLTVLSAEK | -0.384
HMESAQLIINVAGKVSNPGVYQLPQGSRVVDAIEAAGKQLKGVDISDINLARVLVDGEQILVGGV | 0.247
HMTPDGNATVWSANGYGVRLRTGPGKGYAIIGVYSVGTTVKVLERGPAGGWDHIQVGSRVGYMMNEFLHYY | -1.69
HMLRKTTDLDAIRSVAKDVIDQNPKAVEDYVGGKESAIGFLLGQVMRATKGTADANTVRELLKEILDS | 0.311
HMKPGYVIQVNGTVTKIQSGLVYVKTPAAQYTLMRKYAPADAAVGDRVSLWINEEGMVIDVHGK | -0.0092
HMIYSKSDLELFGIKKIDVMEENILMLILSEYELDQTPKNILIDEAVRLSKKFGADNAYKFVNATLDTLL | -0.944
HMIVMPELRGKDLKEAERLLSSHNLRYELVDSVYDKSLAPGVVVEMVPQSGNTVKPGRIIFLSINA | -0.878
HMRLDHIFSVVERLKGVSLGAGDRLEVQKYEDLLTVYKSKNALSSEEAQTLNDILASLLKMMAKYD | -0.00461
HMKNLTEVEYSEFLESIAQDRVSKVQVDGLIIRGEMNDGQRFETVQPQVTDKALIDDMVNHRVDFSGARP | 0.0951
HMNVVSIEHIRTHLQNHLSLIGRSIEESFNEAKVIAFVASLFLTHRGYASVSQDMGTNGEIYLQDLW | -0.381
HMAGLELVVTREQAGRTVKSLLRGELGISTALMGRLKRTGTGLTVNGTRVFTNAVLREGDRLAVDLDAAE | -0.606
HMTDLNQIGERIKGLRDALGYSPEKMASILEQKVDDYLAYEEGTKDISLSVLQRIEKEFDIDLSTLLFGT | -0.148
HMAIRLIKASREFNVGISTIVEFLEKKGHAIDSDPNSKIPDELYQLIEKEFQTEGSVKKAAKQI | -0.0914
HMTYFDIAPELLTVYKEINDIPRDINQIVRKTGLSINEVSYKTMILQLEDKIVELPGQRFIRNS | -1.99
HMDLQAAWLQTVRHLLAHTEDVGDRFAEEARRIHYGEEPHRGIRGQATPEERLALREEGIETMSIPV | -0.631
HMREVEAPRDLLAALGERPGALDAWKALSFTHQREYVEAIEDARKPETRERRIANAVKMVAERS | 0.285
HMQMGLNEAYRVLHVSPDAPWREVQSAYKERMAKSHPDKVSHLGEELQEKAKELTVEINKAYNTIKRYKK | 0.194
